Measured values: the supplement of paper PMC9112550, “Optimization of the antimicrobial peptide Bac7 by deep mutational scanning” (BMC Biology, 2022)

Test system: Escherichia coli TOP10
Test: shrunken log2 fold change of peptide-encoding DNA abundance (4.5 h post-induction vs induction); higher = less antimicrobial activity (less host growth inhibition)
Conditions: time post-induction: 4.5 h; library: site-saturation at positions 5, 18, 19, 20
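Note: peptides expressed intracellularly from a pBAD plasmid library in pooled LB shake-flask culture, induced with 0.3% L-arabinose, DNA abundance read by NGS, three biological replicates, DESeq2 with apeglm shrinkage.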

## RRIRTRPPRLPRPRPRPAHCPRP
  shrunken log2 fold change: -0.168

## RRIRTRPPRLPRPRPRPAHIPRP
  shrunken log2 fold change: 0.0726

## RRIRTRPPRLPRPRPRPAHSPRP
  shrunken log2 fold change: 0.0608

## RRIRTRPPRLPRPRPRPAILPRP
  shrunken log2 fold change: -0.157

## RRIRTRPPRLPRPRPRPAIQPRP
  shrunken log2 fold change: -0.216

## RRIRTRPPRLPRPRPRPAKLPRP
  shrunken log2 fold change: 0.108

## RRIRTRPPRLPRPRPRPAKWPRP
  shrunken log2 fold change: -0.000772

## RRIRTRPPRLPRPRPRPALCPRP
  shrunken log2 fold change: -0.0776

## RRIRTRPPRLPRPRPRPAMAPRP
  shrunken log2 fold change: 0.392

## RRIRTRPPRLPRPRPRPANKPRP
  shrunken log2 fold change: -0.216

## RRIRTRPPRLPRPRPRPAPKPRP
  shrunken log2 fold change: 0.371

## RRIRTRPPRLPRPRPRPAQSPRP
  shrunken log2 fold change: 0.343

## RRIRTRPPRLPRPRPRPASPPRP
  shrunken log2 fold change: 0.209

## RRIRTRPPRLPRPRPRPAVHPRP
  shrunken log2 fold change: -0.0614

## RRIRTRPPRLPRPRPRPAWCPRP
  shrunken log2 fold change: 0.0035

## RRIRTRPPRLPRPRPRPCALPRP
  shrunken log2 fold change: -0.0236

## RRIRTRPPRLPRPRPRPCAYPRP
  shrunken log2 fold change: -0.164

## RRIRTRPPRLPRPRPRPCCIPRP
  shrunken log2 fold change: -0.155

## RRIRTRPPRLPRPRPRPCCLPRP
  shrunken log2 fold change: 0.096

## RRIRTRPPRLPRPRPRPCDYPRP
  shrunken log2 fold change: -0.0715

## RRIRTRPPRLPRPRPRPCECPRP
  shrunken log2 fold change: 0.0538

## RRIRTRPPRLPRPRPRPCEMPRP
  shrunken log2 fold change: 0.0671

## RRIRTRPPRLPRPRPRPCGNPRP
  shrunken log2 fold change: -0.0693

## RRIRTRPPRLPRPRPRPCGPPRP
  shrunken log2 fold change: -0.0329

## RRIRTRPPRLPRPRPRPCGTPRP
  shrunken log2 fold change: -0.0194

## RRIRTRPPRLPRPRPRPCHKPRP
  shrunken log2 fold change: 0.014

## RRIRTRPPRLPRPRPRPCHYPRP
  shrunken log2 fold change: -0.253

## RRIRTRPPRLPRPRPRPCIFPRP
  shrunken log2 fold change: -0.233

## RRIRTRPPRLPRPRPRPCKTPRP
  shrunken log2 fold change: -0.0173

## RRIRTRPPRLPRPRPRPCLDPRP
  shrunken log2 fold change: -0.405

## RRIRTRPPRLPRPRPRPCLKPRP
  shrunken log2 fold change: -0.0017

## RRIRTRPPRLPRPRPRPCLVPRP
  shrunken log2 fold change: -0.175

## RRIRTRPPRLPRPRPRPCNIPRP
  shrunken log2 fold change: 0.048

## RRIRTRPPRLPRPRPRPCNMPRP
  shrunken log2 fold change: -0.154

## RRIRTRPPRLPRPRPRPCPQPRP
  shrunken log2 fold change: -0.312

## RRIRTRPPRLPRPRPRPCQCPRP
  shrunken log2 fold change: -0.195

## RRIRTRPPRLPRPRPRPCQHPRP
  shrunken log2 fold change: 0.0626

## RRIRTRPPRLPRPRPRPCRDPRP
  shrunken log2 fold change: -0.118

## RRIRTRPPRLPRPRPRPCSLPRP
  shrunken log2 fold change: -0.128

## RRIRTRPPRLPRPRPRPCTCPRP
  shrunken log2 fold change: -0.00101

## RRIRTRPPRLPRPRPRPCVRPRP
  shrunken log2 fold change: 0.116

## RRIRTRPPRLPRPRPRPCVTPRP
  shrunken log2 fold change: -0.208

## RRIRTRPPRLPRPRPRPCYGPRP
  shrunken log2 fold change: -0.146

## RRIRTRPPRLPRPRPRPDACPRP
  shrunken log2 fold change: -0.0191

## RRIRTRPPRLPRPRPRPDCNPRP
  shrunken log2 fold change: 0.0556

## RRIRTRPPRLPRPRPRPDDDPRP
  shrunken log2 fold change: -0.00136

## RRIRTRPPRLPRPRPRPDDYPRP
  shrunken log2 fold change: -0.111

## RRIRTRPPRLPRPRPRPDEAPRP
  shrunken log2 fold change: -0.0661

## RRIRTRPPRLPRPRPRPDFIPRP
  shrunken log2 fold change: -0.547

## RRIRTRPPRLPRPRPRPDFPPRP
  shrunken log2 fold change: -0.178

## RRIRTRPPRLPRPRPRPDGHPRP
  shrunken log2 fold change: -0.102

## RRIRTRPPRLPRPRPRPDIRPRP
  shrunken log2 fold change: 0.0296

## RRIRTRPPRLPRPRPRPDKAPRP
  shrunken log2 fold change: -0.0271

## RRIRTRPPRLPRPRPRPDLCPRP
  shrunken log2 fold change: 0.144

## RRIRTRPPRLPRPRPRPDLGPRP
  shrunken log2 fold change: -0.117

## RRIRTRPPRLPRPRPRPDLHPRP
  shrunken log2 fold change: -0.174

## RRIRTRPPRLPRPRPRPDLNPRP
  shrunken log2 fold change: 0.0685

## RRIRTRPPRLPRPRPRPDPIPRP
  shrunken log2 fold change: 0.03

## RRIRTRPPRLPRPRPRPDPTPRP
  shrunken log2 fold change: -0.0451

## RRIRTRPPRLPRPRPRPDPWPRP
  shrunken log2 fold change: 0.0451

## RRIRTRPPRLPRPRPRPDQFPRP
  shrunken log2 fold change: -0.00188

## RRIRTRPPRLPRPRPRPDRAPRP
  shrunken log2 fold change: -0.438

## RRIRTRPPRLPRPRPRPDRGPRP
  shrunken log2 fold change: -0.252

## RRIRTRPPRLPRPRPRPDRWPRP
  shrunken log2 fold change: 0.0353

## RRIRTRPPRLPRPRPRPDSDPRP
  shrunken log2 fold change: -0.65

## RRIRTRPPRLPRPRPRPDSEPRP
  shrunken log2 fold change: -0.182

## RRIRTRPPRLPRPRPRPDSFPRP
  shrunken log2 fold change: 0.033

## RRIRTRPPRLPRPRPRPDTHPRP
  shrunken log2 fold change: -0.424

## RRIRTRPPRLPRPRPRPDTRPRP
  shrunken log2 fold change: -0.186

## RRIRTRPPRLPRPRPRPDVGPRP
  shrunken log2 fold change: -0.0549

## RRIRTRPPRLPRPRPRPDWDPRP
  shrunken log2 fold change: 0.223

## RRIRTRPPRLPRPRPRPEDEPRP
  shrunken log2 fold change: 0.0995

## RRIRTRPPRLPRPRPRPEEEPRP
  shrunken log2 fold change: 0.385

## RRIRTRPPRLPRPRPRPEEFPRP
  shrunken log2 fold change: -0.0783

## RRIRTRPPRLPRPRPRPEFTPRP
  shrunken log2 fold change: 0.016

## RRIRTRPPRLPRPRPRPEIFPRP
  shrunken log2 fold change: -0.303

## RRIRTRPPRLPRPRPRPELRPRP
  shrunken log2 fold change: 0.225

## RRIRTRPPRLPRPRPRPELVPRP
  shrunken log2 fold change: 0.0224

## RRIRTRPPRLPRPRPRPELWPRP
  shrunken log2 fold change: -0.142

## RRIRTRPPRLPRPRPRPEMVPRP
  shrunken log2 fold change: 0.134

## RRIRTRPPRLPRPRPRPEPAPRP
  shrunken log2 fold change: 0.763

## RRIRTRPPRLPRPRPRPEPCPRP
  shrunken log2 fold change: 0.0427

## RRIRTRPPRLPRPRPRPEPQPRP
  shrunken log2 fold change: 0.927

## RRIRTRPPRLPRPRPRPEPTPRP
  shrunken log2 fold change: 0.347

## RRIRTRPPRLPRPRPRPEPVPRP
  shrunken log2 fold change: 0.272

## RRIRTRPPRLPRPRPRPEQDPRP
  shrunken log2 fold change: 0.0235

## RRIRTRPPRLPRPRPRPEQYPRP
  shrunken log2 fold change: -0.0335

## RRIRTRPPRLPRPRPRPESMPRP
  shrunken log2 fold change: 0.0954

## RRIRTRPPRLPRPRPRPESVPRP
  shrunken log2 fold change: -0.0229

## RRIRTRPPRLPRPRPRPEVQPRP
  shrunken log2 fold change: 0.0183

## RRIRTRPPRLPRPRPRPEWAPRP
  shrunken log2 fold change: 0.213

## RRIRTRPPRLPRPRPRPEYTPRP
  shrunken log2 fold change: -0.052

## RRIRTRPPRLPRPRPRPEYVPRP
  shrunken log2 fold change: 0.0172

## RRIRTRPPRLPRPRPRPFEAPRP
  shrunken log2 fold change: 0.0368

## RRIRTRPPRLPRPRPRPFEPPRP
  shrunken log2 fold change: -0.231

## RRIRTRPPRLPRPRPRPFFSPRP
  shrunken log2 fold change: -0.135

## RRIRTRPPRLPRPRPRPFGHPRP
  shrunken log2 fold change: -0.145

## RRIRTRPPRLPRPRPRPFGPPRP
  shrunken log2 fold change: 0.204

## RRIRTRPPRLPRPRPRPFGRPRP
  shrunken log2 fold change: 0.0376

## RRIRTRPPRLPRPRPRPFHMPRP
  shrunken log2 fold change: -0.13

## RRIRTRPPRLPRPRPRPFIHPRP
  shrunken log2 fold change: -0.0383

## RRIRTRPPRLPRPRPRPFIMPRP
  shrunken log2 fold change: -0.339

## RRIRTRPPRLPRPRPRPFKKPRP
  shrunken log2 fold change: -0.102

## RRIRTRPPRLPRPRPRPFKNPRP
  shrunken log2 fold change: 0.0716

## RRIRTRPPRLPRPRPRPFKTPRP
  shrunken log2 fold change: 0.0238

## RRIRTRPPRLPRPRPRPFKWPRP
  shrunken log2 fold change: -0.121

## RRIRTRPPRLPRPRPRPFMFPRP
  shrunken log2 fold change: -0.586

## RRIRTRPPRLPRPRPRPFMVPRP
  shrunken log2 fold change: -0.291

## RRIRTRPPRLPRPRPRPFPHPRP
  shrunken log2 fold change: -0.247

## RRIRTRPPRLPRPRPRPFQYPRP
  shrunken log2 fold change: -0.0476

## RRIRTRPPRLPRPRPRPFRLPRP
  shrunken log2 fold change: -0.365

## RRIRTRPPRLPRPRPRPFSGPRP
  shrunken log2 fold change: -0.0204

## RRIRTRPPRLPRPRPRPFSNPRP
  shrunken log2 fold change: -0.405

## RRIRTRPPRLPRPRPRPFTLPRP
  shrunken log2 fold change: -0.312

## RRIRTRPPRLPRPRPRPFTPPRP
  shrunken log2 fold change: -0.0472

## RRIRTRPPRLPRPRPRPFTQPRP
  shrunken log2 fold change: -0.487

## RRIRTRPPRLPRPRPRPFVAPRP
  shrunken log2 fold change: -0.0696

## RRIRTRPPRLPRPRPRPFVGPRP
  shrunken log2 fold change: -0.035

## RRIRTRPPRLPRPRPRPFVSPRP
  shrunken log2 fold change: 0.00713

## RRIRTRPPRLPRPRPRPFWCPRP
  shrunken log2 fold change: -0.111

## RRIRTRPPRLPRPRPRPFWRPRP
  shrunken log2 fold change: 0.112

## RRIRTRPPRLPRPRPRPFYVPRP
  shrunken log2 fold change: -0.45

## RRIRTRPPRLPRPRPRPGCEPRP
  shrunken log2 fold change: -0.117

## RRIRTRPPRLPRPRPRPGDIPRP
  shrunken log2 fold change: -0.119

## RRIRTRPPRLPRPRPRPGDVPRP
  shrunken log2 fold change: 0.0978

## RRIRTRPPRLPRPRPRPGFLPRP
  shrunken log2 fold change: 0.122

## RRIRTRPPRLPRPRPRPGFPPRP
  shrunken log2 fold change: -0.0413

## RRIRTRPPRLPRPRPRPGFYPRP
  shrunken log2 fold change: -0.159

## RRIRTRPPRLPRPRPRPGHDPRP
  shrunken log2 fold change: -0.108

## RRIRTRPPRLPRPRPRPGHGPRP
  shrunken log2 fold change: 0.138

## RRIRTRPPRLPRPRPRPGHLPRP
  shrunken log2 fold change: -0.377

## RRIRTRPPRLPRPRPRPGIKPRP
  shrunken log2 fold change: -0.162

## RRIRTRPPRLPRPRPRPGKIPRP
  shrunken log2 fold change: 0.0168

## RRIRTRPPRLPRPRPRPGKKPRP
  shrunken log2 fold change: -0.0783

## RRIRTRPPRLPRPRPRPGKPPRP
  shrunken log2 fold change: 0.0978

## RRIRTRPPRLPRPRPRPGLKPRP
  shrunken log2 fold change: 0.0372

## RRIRTRPPRLPRPRPRPGMDPRP
  shrunken log2 fold change: 0.0475

## RRIRTRPPRLPRPRPRPGMHPRP
  shrunken log2 fold change: 0.0032

## RRIRTRPPRLPRPRPRPGNRPRP
  shrunken log2 fold change: 0.192

## RRIRTRPPRLPRPRPRPGQAPRP
  shrunken log2 fold change: -0.228

## RRIRTRPPRLPRPRPRPGRYPRP
  shrunken log2 fold change: 0.123

## RRIRTRPPRLPRPRPRPGSGPRP
  shrunken log2 fold change: 0.344

## RRIRTRPPRLPRPRPRPGSKPRP
  shrunken log2 fold change: 0.0896

## RRIRTRPPRLPRPRPRPGTAPRP
  shrunken log2 fold change: 0.166

## RRIRTRPPRLPRPRPRPGTCPRP
  shrunken log2 fold change: -0.00643

## RRIRTRPPRLPRPRPRPGTDPRP
  shrunken log2 fold change: -0.253

## RRIRTRPPRLPRPRPRPGTEPRP
  shrunken log2 fold change: 0.0787

## RRIRTRPPRLPRPRPRPGTGPRP
  shrunken log2 fold change: 0.257

## RRIRTRPPRLPRPRPRPGVSPRP
  shrunken log2 fold change: -0.221

## RRIRTRPPRLPRPRPRPGVTPRP
  shrunken log2 fold change: 0.276
